B1: EV029105a (antibody, human IgG1, kappa, V domains shown)
VH: QVQLVQSGAEVKKPGSSVKVSCKASGDTFSSHAITWVRQAPGQGLEWMGRIIPIFSISDYAQKFQGRVTFTADKSTSIAFMELSSLRSQDTAVYYCARSLLAYCTGGSCSEFGAEDHWGQGTLVTVSS
VL: EIVLTQSPGTLSLSPGERATLSCRASQSVSSNYLAWYQQKPGQAPRLLIFGASSRATGIPDRFSGSGSGTDFTLTISRLEPEDFAVYYCQQYGSSIPVTFGQGTKVEIKR
notes: also called anti-toxin A antibody EV029105a
B2: EV029104 (antibody, human IgG1, lambda, V domains shown)
VH: EVQLVESGGGLVQPGGSLRLSCAASGLTINSYWMNWVRQIPGKGLEWVANINPTGSQQYYVDSVRGRFTISRDDAKKSLFLQLDSLRVEDTAVYYCARGRRGNSAYCDSWGQGTQVTVSS
VL: QSALTQPRSVSGSPGQSVTISCTGTSSDIGAYDYVSWYRHHPGKAPKLIIFDVAKWPSGVPDRFSGSKSGNTASLTISGLQDDDEGDYYCCSYAGRFSLIFGGGTKLTVLG
notes: also called anti-toxin B antibody EV029104

What was measured:
[1] = target: T1, Clostridium difficile toxin A (Clostridium difficile, UniProt P16154 1-2710); assay: cell-based or functional assay
T1 sequence (P16154 whole entry, the tested form may be a part): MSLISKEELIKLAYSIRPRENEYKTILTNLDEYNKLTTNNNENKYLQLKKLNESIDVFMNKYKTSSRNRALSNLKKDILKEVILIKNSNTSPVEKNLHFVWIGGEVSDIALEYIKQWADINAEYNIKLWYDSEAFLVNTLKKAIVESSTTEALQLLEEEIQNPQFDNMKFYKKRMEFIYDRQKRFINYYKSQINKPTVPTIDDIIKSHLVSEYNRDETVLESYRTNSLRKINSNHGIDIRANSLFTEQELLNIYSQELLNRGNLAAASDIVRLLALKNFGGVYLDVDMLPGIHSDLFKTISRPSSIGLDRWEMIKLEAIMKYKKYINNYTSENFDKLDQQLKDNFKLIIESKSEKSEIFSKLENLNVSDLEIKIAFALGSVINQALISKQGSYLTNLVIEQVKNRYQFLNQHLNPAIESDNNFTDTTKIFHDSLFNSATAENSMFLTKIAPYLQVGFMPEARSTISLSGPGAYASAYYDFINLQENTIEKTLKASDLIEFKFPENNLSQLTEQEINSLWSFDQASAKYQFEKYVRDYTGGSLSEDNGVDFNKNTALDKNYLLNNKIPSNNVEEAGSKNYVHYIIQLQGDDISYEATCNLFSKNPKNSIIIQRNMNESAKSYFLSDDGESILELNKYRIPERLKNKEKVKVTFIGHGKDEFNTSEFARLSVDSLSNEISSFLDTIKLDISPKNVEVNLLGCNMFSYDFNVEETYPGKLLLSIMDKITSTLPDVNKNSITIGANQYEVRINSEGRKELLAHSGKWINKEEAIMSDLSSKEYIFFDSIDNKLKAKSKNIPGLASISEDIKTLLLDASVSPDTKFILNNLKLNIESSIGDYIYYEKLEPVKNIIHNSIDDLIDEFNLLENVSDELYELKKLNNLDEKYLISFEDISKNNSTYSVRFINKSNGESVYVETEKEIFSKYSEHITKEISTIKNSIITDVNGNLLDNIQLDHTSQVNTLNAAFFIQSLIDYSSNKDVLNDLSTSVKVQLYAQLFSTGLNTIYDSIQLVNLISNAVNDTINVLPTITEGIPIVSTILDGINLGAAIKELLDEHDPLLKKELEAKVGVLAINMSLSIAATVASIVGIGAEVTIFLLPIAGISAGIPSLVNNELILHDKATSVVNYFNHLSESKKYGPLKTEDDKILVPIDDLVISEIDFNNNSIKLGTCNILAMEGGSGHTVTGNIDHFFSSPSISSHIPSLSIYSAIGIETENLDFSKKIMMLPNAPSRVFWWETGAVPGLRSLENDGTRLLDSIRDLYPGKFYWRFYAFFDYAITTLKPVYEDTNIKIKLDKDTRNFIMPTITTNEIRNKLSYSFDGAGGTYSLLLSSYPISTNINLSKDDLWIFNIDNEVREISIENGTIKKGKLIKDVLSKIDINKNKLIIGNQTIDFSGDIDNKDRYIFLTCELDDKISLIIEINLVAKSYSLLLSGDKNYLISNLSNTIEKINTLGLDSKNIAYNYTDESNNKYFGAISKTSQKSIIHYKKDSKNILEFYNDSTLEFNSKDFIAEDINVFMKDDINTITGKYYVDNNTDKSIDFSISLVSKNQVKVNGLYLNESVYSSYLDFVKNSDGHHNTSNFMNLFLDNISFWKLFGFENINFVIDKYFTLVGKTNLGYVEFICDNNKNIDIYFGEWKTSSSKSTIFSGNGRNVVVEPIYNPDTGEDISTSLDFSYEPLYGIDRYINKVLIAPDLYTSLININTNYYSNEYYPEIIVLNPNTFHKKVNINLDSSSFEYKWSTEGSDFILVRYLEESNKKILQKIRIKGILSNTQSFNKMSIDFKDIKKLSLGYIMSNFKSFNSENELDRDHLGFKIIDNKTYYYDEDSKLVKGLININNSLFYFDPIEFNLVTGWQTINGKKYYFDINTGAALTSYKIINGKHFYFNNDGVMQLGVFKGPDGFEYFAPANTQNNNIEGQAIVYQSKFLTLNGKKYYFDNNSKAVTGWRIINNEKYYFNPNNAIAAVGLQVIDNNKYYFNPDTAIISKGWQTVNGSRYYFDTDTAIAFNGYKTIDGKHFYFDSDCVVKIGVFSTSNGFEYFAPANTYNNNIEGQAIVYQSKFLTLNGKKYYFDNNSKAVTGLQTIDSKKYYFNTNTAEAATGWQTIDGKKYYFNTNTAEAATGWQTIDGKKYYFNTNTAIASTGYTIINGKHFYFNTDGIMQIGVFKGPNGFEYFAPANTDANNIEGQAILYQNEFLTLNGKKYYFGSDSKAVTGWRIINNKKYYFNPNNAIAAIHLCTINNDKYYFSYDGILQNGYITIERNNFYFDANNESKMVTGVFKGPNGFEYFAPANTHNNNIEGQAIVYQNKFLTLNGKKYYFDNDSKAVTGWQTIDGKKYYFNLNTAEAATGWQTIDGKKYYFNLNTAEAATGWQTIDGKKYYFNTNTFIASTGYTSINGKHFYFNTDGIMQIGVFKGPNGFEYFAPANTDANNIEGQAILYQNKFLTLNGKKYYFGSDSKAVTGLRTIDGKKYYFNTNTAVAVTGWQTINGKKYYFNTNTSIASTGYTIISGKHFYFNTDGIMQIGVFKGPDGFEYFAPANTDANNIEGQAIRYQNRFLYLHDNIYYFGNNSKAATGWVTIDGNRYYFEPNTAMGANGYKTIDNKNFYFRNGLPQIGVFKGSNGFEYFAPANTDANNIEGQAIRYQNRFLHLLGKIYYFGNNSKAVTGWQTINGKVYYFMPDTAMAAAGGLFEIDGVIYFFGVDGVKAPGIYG

[2] = target: T2, toxin A fragment 4 (receptor-binding domain, amino acids 1853 to 2710 of toxin A) (Clostridium difficile, UniProt P16154 1853-2710); assay: Western blotting on E. coli lysates of toxin A fragments
T2 construct: also called RB domain
T2 sequence (P16154 1853-2710): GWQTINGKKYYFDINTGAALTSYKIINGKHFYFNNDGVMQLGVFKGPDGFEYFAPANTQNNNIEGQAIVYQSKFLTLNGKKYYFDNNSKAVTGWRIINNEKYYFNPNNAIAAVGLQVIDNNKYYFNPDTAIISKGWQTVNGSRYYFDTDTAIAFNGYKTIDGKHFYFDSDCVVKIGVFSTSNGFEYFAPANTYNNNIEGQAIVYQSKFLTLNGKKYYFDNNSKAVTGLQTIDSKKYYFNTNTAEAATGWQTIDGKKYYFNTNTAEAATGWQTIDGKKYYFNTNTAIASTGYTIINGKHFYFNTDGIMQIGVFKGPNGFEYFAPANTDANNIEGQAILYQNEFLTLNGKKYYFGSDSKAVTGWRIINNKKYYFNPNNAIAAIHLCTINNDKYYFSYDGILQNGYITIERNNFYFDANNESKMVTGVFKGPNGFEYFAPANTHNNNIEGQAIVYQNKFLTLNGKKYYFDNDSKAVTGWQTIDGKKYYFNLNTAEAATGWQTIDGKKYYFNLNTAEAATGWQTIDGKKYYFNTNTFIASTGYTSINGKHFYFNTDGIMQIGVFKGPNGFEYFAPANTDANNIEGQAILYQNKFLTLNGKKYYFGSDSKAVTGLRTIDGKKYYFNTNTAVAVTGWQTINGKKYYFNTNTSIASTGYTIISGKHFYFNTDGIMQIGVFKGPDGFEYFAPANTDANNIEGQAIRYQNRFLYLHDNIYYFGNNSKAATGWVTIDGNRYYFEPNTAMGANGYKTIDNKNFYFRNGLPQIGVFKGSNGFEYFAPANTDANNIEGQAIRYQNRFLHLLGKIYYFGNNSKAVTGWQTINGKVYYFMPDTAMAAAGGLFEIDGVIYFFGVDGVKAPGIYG

[3] = target: T1, Clostridium difficile toxin A; assay: SPR, Biacore T200, biotinylated toxin A on sensor chip CAP, antibody flowed
[4] = target: Clostridium difficile toxin B (Clostridium difficile, UniProt P18177 2-2366); assay: cell-based or functional assay
[5] = target: T3, toxin B fragment 4 (receptor-binding domain, amino acids 1777 to 2366 of toxin B) (Clostridium difficile, UniProt P18177 1777-2366); assay: Western blotting on E. coli lysates of toxin B fragments
T3 construct: also called RB domain
T3 sequence (P18177 1777-2366): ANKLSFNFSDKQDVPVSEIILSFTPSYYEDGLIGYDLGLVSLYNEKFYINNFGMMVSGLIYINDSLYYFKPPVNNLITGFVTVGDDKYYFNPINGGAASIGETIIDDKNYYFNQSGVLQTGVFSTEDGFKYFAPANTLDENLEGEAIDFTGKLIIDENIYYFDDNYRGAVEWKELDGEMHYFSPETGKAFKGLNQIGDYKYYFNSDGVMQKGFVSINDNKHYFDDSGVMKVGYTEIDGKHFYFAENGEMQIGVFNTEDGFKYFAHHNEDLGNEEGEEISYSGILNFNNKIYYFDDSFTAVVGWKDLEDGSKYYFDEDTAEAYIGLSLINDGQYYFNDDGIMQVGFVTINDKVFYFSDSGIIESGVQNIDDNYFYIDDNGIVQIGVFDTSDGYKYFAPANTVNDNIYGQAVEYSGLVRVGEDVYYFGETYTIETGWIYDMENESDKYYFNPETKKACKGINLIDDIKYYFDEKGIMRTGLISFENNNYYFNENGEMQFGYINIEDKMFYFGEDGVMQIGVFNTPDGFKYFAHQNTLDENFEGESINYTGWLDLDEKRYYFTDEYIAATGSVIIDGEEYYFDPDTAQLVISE

Binder | EC50 (ng/mL), neutralizing activity against the cytotoxicity of toxin A to IMR-90 cells (cell rounding) [1] | EC50, neutralizing activity against the cytotoxicity of toxin A to IMR-90 cells (cell rounding) [1] | binding result [2] | Kd [3] | koff [3] | kon [3] | neutralizing activity (EC50 value), rounding of toxin B-exposed IMR-90 cells [4] | binding result [5]
B1 | 4.92 ng/mL | 0.033 nM | binds | 0.151 nM | 9.89e-05 s⁻¹ | 653000 M⁻¹ s⁻¹ |  | 
B2 |  |  |  |  |  |  | ≤ 100 ng/mL | binds
